Measured values from the nanobody polyreactivity screen of Harvey et al. (2022).

assay: yeast display, Sf9 membrane polyspecificity reagent, FACS + sequencing; frameworks hold sequencing errors
In short: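 Genes from sorted yeast were amplified by colony PCR, read by MiSeq 2 × 250 sequencing and filtered on CDR length. These cells carried a synthetic nanobody library in Saccharomyces cerevisiae BJ5465 and were sorted by FACS into low and high (top ~1%) gates on anti-HA and streptavidin fluorescence. Polyreactivity is labelled according to the gate of origin.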

Sequence | polyreactivity (PSR sort gate)
QVQLVESGGGLVQAGGSLRLSCAASGRIFGGNAMGWYRQAPGKERELVAAITTRGGSTYADSVKGRFTISRDNAKNTVYLQMNSLKPEDTAVYYCNKRYVIRRRGYDYWGQGTQVTVSS | low polyreactivity
QVQLVEAGGGLVQAGGSLRLSCAASGSTFVKNAMGWYRQAPGKERELVAAISYRGGRTYYADSVKRRFTISRDNAKNTVYLQMNSLKPEDTAVYYCAADASHLTGYEYWGQGTQGTVSS | high polyreactivity
QVQLVESGGGLVQAGGSLRLSCAASGFIFADYTMGWYRQPPGKERELVAAITRSGDSTYYADSVKGRFTISRDNAKNTVYLQMNSLKPEDTAVYYCNAVNDWYYAYYGVTSFRSYDYWGQGTQVTVSS | low polyreactivity
QVQLVESGGGLVQAGGSLRLSCAASGSIFDVNAMGWYRQAPGKERELVAAISQRGTRTYYADSVKGRFTISRDNAKNTVYLQMNSLKPEDTAVYYCNRGGWRQYDSWGQGTQVTVSS | high polyreactivity
QVQLVESGGGLVQAGGSLRLSCAASGLTFSSYTMGWYRQAPGKERELVAAISSGGSTYYADSVKGRFTISRDNAKNTVYLQMNSLKPEDTAVYYCAAAFRYTPLSDHGYWGQGTQVTVSS | high polyreactivity
QVQLVESGGGLVQAGGRLRLSCAASGSIFYYYAMGWYRQAPGTERELVAAISRGGNTYYADSVKGRFTNSRDNAKNTVYLQMNSLKPEDTAVYYCNARPPNKRYKYGYWGQGTQVTVSS | high polyreactivity
QVQLVESGRGLVQAGGSLRLSCAASGSTFIPYVMGWYRKAPGKEREFVAAIRWSGGRTRYADSVKGRFTLSRDNAKNTVYLQMNSLKPEDTAVYYCAAYRLSKPFYKYDYWGQGTQVTVSS | high polyreactivity
QVQLVESWGGLVQAGGSLRISCAASGRTFPDYAMGWYRQAPGKERELVAAISSGGGTYYADSVKGRFTISRDNAKNTVFLQMNSLKPEDTAVYYCAATGVPGWVGFDYCGQGTQVTVSS | low polyreactivity
QVQLVESGGGLVQGGGSLRLSCAASGRTFAPNAMGWYRQAPGKERELVAAISYNSGTTYYADSVKGRFTISRDNAKNTVYLQMNSLKPEDTAVYYCAAGHWVGPYQAMEYWGQGTQVTVSS | high polyreactivity
QVQLVESGGGLVQAGGSLRLSCAASGRTFTHNTMGWYRQAPGKERELVAAISRSGASTYYADSVKGRFTISRDNAKNTVYLQMNSLKPEDTAVYYCNAYSRPHFGYVVGTKSRHGYWGQGTQVTVSS | high polyreactivity
QVQHVESGGGLVQAGGSLRLSCAASGIIFIGNAMGWYRQAPGKEGALVAANTDSGGRTYYADSVKGRFTISRDNAKNSVYLQMNCLKPEDTAVYYCARDRGKNTPYDYWGQGTLVTVSS | low polyreactivity
QVQLVESGGGLVQAGGSLRLSCAASGRIFNLYAMGWYRQAPGKERELVAAISYSGGRTYYADSVKGRFTISRDNAKNTVYLQMNSLKPEDTAVYYCNTVRGSVRQAGVGYDYWGQGTQVTVSS | high polyreactivity
QVQLVESGGGLVQAGGSLRLSCAASGSIFRVYAMGWYRQAPGKERELVAGITGRGGSTYYADSVKGRFTISRDNAKNTVYLQMNSLKPEDTAVYYCNRRYRYGRDYWGQGTQVTVSS | high polyreactivity
QVQLVESGGGLVQAGGSIRLSCAASGLTFRWYAMGWYRQAPGKESELVAAISSGGRTYYADSVKGRFTISRDNAKNTVYLLMNSLKPEDTAVYYSNKRTLDYGFGSYGREYWGQGTQVTVSS | high polyreactivity
QVQLVETVGGLLQAGGSLRLSCPASGSTLYYNTMGWYRQAPGKERELVATISSRGGRTHYADSVKGRFTISRDNAKNTVYLQMNSLKPEDTAVYYCNALPRVVYTVGQSPFYYWGQGTQVTVSS | high polyreactivity
QVQLVESGGGLVQAGASLRLSCAASVSIFDTNAMGWYRQAPGKERELVASISSGGGSTYYADSVKGRFTISRDNAKNTVYLQMNSLKPEDTAVYFCARRIGHGSRPYWLETWRYAYDYWGQGSQVTVSS | low polyreactivity
QVQLVESGGGLVQAGGSLLLSCAASGSTFISYAMGWYRQAPGKERELVAAITWRGGSTYNADSVKGRFTISRDNAKNTVYLQMNSMKPEDTAVYYCAAEFYYYYGRYDYWGQGTQVTVSS | high polyreactivity
QVQLVESGGGLVQEGGSLRLSCAASGRIFRRYTMGWYRQAPGKERELVAVITSGGNTHYADSVKGRFTISRDNAKNTVYLQMNSLKPEDTAVYYCAARHYRGSNDYWGQGTQVTVSS | high polyreactivity
QVQLVESGGGLVQAAGSLRLSCASSGSIIFYYAMGWYRQAPGNEREFVAAITRSGVRTYYADSVKGRFTISRDNAKNTVYLQMNSLIPEDTAVYYCIAEAYPYWYRGASREYDYWGQGTQVTVSS | low polyreactivity
QEQLEESGGGLVQAGGRLRLSCAASGSTFGINARGWYRQAPGKEREVVASITRRGGSTYYADSVKGRFTISRDNAKNTVYLQMNSLKPEDTAVYYCNKTYRYGTPLYYYWGQGTQVTVSS | high polyreactivity
QVQLVESGGGFVQAGGSLRLSCAASGSTFSYYAMGWYRQAPGKERELVAAINWRGTNTYYADSVKGRFTISRDNAKNTVYLQMNSLKPEDTAVYYCNKESYRSSSPYNYWGQGTQVTVSS | high polyreactivity
QVQLVESGGGLVQAGGSLRLSCAASGFIFRNYAMGWYRQAPGKERELVAAITRSGTSTYYADSVKGRFTISRDNAKNTVYLQMNSLKPEDTAVYYCAARAWSSRRRLMYYWGQGTQVTVSS | high polyreactivity

Sequence | polyreactivity (PSR sort gate)
QVQLVDSGGGLVQAGGSLRISCPASGRIIDLNARGWYRQAPGKERELVAAISYSGGRTFYADSVKGRFTISRDNAKNTVDLQMISLKPEVTAVYYCNVRRGDRFVRHDYWGQGSQVTVSS | low polyreactivity
QVQLVESGGGLVQAGGRLRLSCAASGLTFGGNAMGWYRQAPGKERELVAAISWSDDTTDYADSVKGLFTISRDNAKNTVYFQMNRLKPEDTAVYYCAARLPFEHVDYWGQGTQVTVSS | low polyreactivity
QVQLVESVGGLVQAGGSLRLSCAASGSIFRNYAMGWYRQAPGKERELVAAITYRGGTTYYADSVKGRFTISRDNAKNTVYLQMNSLKPEDTAVYYCNTASVSRLYGEYDYWGQGTQVTVSS | high polyreactivity
QVQLVESGGGLCQAGGSLRLSCAASGRTFYKNTMGWYRQAPGKERELVAAISIRGGSTYFADTVKGRFTISRDNAKNTFYLQMNSLKPEDTAVYYCNVVYQKAARIVDFDYWGQGTQVTLSS | high polyreactivity
QVQIVESGGGLVQAGGSLRISCAASGRTFSWNPMGWYRQAPGKERELVAGITGRGRSTYYADSVKGRFTISRDNAKLTVYLQMNSLTPEDTAVYYCAADSYRSSSPYGYWGQGTQVTVSS | high polyreactivity
QVQRVESGGGLVQAGGSLRLSSAASGPIYGDYAMGWYRQEPGKERELVADITWSGGSTYYADSVKGRFTISRDNAKNTVYLQMNSLKPEDTAVYYCNADVWFYYTFDYWGLGTQVTVSS | low polyreactivity
QVQLVESGGGLVQAGGSLRLSCAASGSISGYYAMGWYRQAPGKERELVASIRYTGARTYYADSVKGRFTISRDNAKNTVYLQMNSLKPEDTAVYYGAADVKRDRVWGGDYWGQGTQVTVSS | low polyreactivity
QVQLVESGGGLVQAGGSLRLSCAASGSTFQWYTMGWYRQAPGKERELVAAISRSGGRTYYADSVKGRFTISRDNAKNTVYLQMNSLKPEDTAVYYCAARWGRLPEQYRYDYWGQGTQVTVSS | high polyreactivity
QVQLVETGGGLVQAGGSLRLSCAASGGILVGYALGWYRQAPGKERELVAAINYSGGSTNYADSVKGRFTISRDNAKNTVYLQMNSLKPEDTAVYYCAARSTARYGYWGQGTQVTVSS | low polyreactivity
QVQLVESGGGLVQAGGSLRLSCAASGRIFGYHARGWSRQAPGKERELVAAIDYTGGSTYYADSVKGRFTISRDNAKNTVYLQMNSLKPEETAVNYCAKDRTTPWEEDAYWGQGTQVTVSS | low polyreactivity
QVQLVESGGGLVQAGGSLRLSCASSGFIFVNYAMEWYRQAPGKERELVAAISRNGGRTYYADSVKGRFTISRDNAKNTVYFQMNSLKPEDTAVYYCTAELSGKRDYWGQGTQVTVSS | high polyreactivity
QDQLVESGGGLDQAGGSLRLSCAAYGSTFGYYALGWSRQAPGKERELVAAISWSGSNTYYADSVKGRFTISRDNAKNTVYLQMNSLTPEDTAVYYCAAVYRGSRAWGYDYWGQGTQVTVSS | high polyreactivity
QVQLVESGGGLVQAGGSLRLSCAASGRTFSRYAMGWYRQAPGKERELVAAISWSGGTTHYADSVKGRFTISRDNAKNTVYLQMNSLKPEDTAVYYCNKLRQIEFWGQGTQVTVSS | high polyreactivity
QVQLVESGGGLVQAGGSLRLSCAASGGIFGYYAMGWYRQAPGKERELVAAISSSGGSTYYADSVKGRFTISRDNAKNTVYLQMNSLKPEDTAVYYCAAYRKVGGFSRGDYWGQGTQVTVSS | high polyreactivity
QVQLVESGGGLVQAGGSLRLSCAASGSIFDDFAMGWYRQAPGKERELVAAISWSGGRTYYADSVKGRFTISRDNAKNTVYLHMNSLKPDDTAVYYCAATTGVRSRRYYYWGQGTQVTVSS | low polyreactivity
QVQLVESGGGLVQAGGSLRLSCAASGFTFIRYAMGWYRQAPGKERELVASISNRGGRTYYADSVKGRFTISRDNAKNTVYLQMNSLKPEDTAVYYCAAGYSYAQYSYPFLSFAFGYWGQGTQVTVSS | high polyreactivity
QVQLVESGGGLVQAGGSLRLSCAASGNTFRRNVMGWYRQAPGKERELVAAINRGGSTTYADSVKGRFTISRDNAKNTVFLQMNSLKPEDTAVYYCNAEKRGQSYRFDYWGQGTQVTVSS | high polyreactivity
QIQLEESGGGLVQAGGSLRLSCAASGSIFDYNTMGWYSQAPGKERELVAAISSSGGSTYYADSVKGRFTISRDNAKNSVYLQMNSLKPEDTAVYYCAAVNGYQYPPYYFNGYDYWGQGTQVTVSS | low polyreactivity
QVQLVESGGGLVQAGGSLRLSCAPSGIIFHKYAMGWYRQAPGTDRELVAVFTGRGGSTYYADSVKGRFTISRDFAKNTVYLQMNSLKPEDTAVYYCAAVTKSWRGATWYDYWGQGTQVTVSS | high polyreactivity
QVQLVESGGGLVQAGGSLRLSCAASGSTFTVYAMGWYRQAPGKERELVAGISSGGSTYYADSVKGRFTISRDNAKNTVYLQMNSLKPEDTAVYYCAALRVRVPLGTYGYWGQVTQVTVSS | high polyreactivity
QVQLVESGGGLVQAGGSLRLSCAASGSPFGFNAMGWYRQAPGKERELVAAISRSGTRTYYADSVKGRFTISRDNEKNTVYLQMNSQKPEDTAVYFCAADSTLSRYDYWGQGTQVTVSS | high polyreactivity
